Measurements as given in patent US20260217863A1 (UIF UNIVERSITY INDUSTRY FOUNDATION YONSEI UNIVERSITY, published 2026).

T1: Ribonuclease A (Type II-A) from bovine pancreas (bovine, UniProt P61823 27-150)
T1 sequence (looked up): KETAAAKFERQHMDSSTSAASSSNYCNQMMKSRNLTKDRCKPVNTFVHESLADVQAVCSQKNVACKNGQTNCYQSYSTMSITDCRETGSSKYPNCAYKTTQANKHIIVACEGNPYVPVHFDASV


Experiments:
[1] = biological target: T1, Ribonuclease A (Type II-A) from bovine …; test: cell-based or functional assay
[2] = biological target: RNase A contained in the actual serum sample; test: cell-based or functional assay
[3] = biological target: RNase A contained in the pig swab actual sample (pig (sample: pig swab)); test: cell-based or functional assay
[4] = biological target: RNase A contained in the saliva swab actual sample; test: cell-based or functional assay
[5] = biological target: T1, Ribonuclease A (Type II-A) from bovine …; test: SPR biosensor, RNase A immobilized on the Au chip, peptide in solution
Procedure: (§1) Binding analysis of the expressed FV antibody and synthesized peptides against RNase A was performed using an SPR (Surface Plasmon Resonance) biosensor from I-Cluebio (Seongnam, Korea). RNase A was immobilized on the gold surface of the SPR chip used in the SPR biosensor to conduct the binding analysis. For the manufacture of the SPR chip, a 2 nm thick titanium adhesive layer and a 48 nm thick gold surface were consecutively sputter-coated onto BK-7 glass (1×1 cm²). […] To analyze the binding of the expressed Fv antibody to RNase A, Fv antibodies in the concentration range of 0.37-100 nM were reacted using PBS buffer as the […] through association (10 minutes), equilibrium (5 minutes), and dissociation (10 minutes) steps. The washing buffer and total SPR measurements were performed at a flow rate of 15 μL/min. For the binding analysis of the synthesized peptides against RNase A, peptides in the concentration range of 0.37-100 nM were reacted using PBS buffer as the washing buffer through association (10 minutes), equilibrium (5 minutes), and dissociation (10 minutes) steps, and total SPR measurements were conducted at a flow rate of 15 μL/min.
Using the screened CDR3 amino acid sequences, the CDR3 regions of the screened Fv antibodies were synthesized as peptides, and the amino acid sequences were determined from the nucleotide sequences of the CDR3 regions as summarized in Table 7. These synthetic peptides (Peptide-1, Peptide-2, Peptide-3) and Fv antibodies (Fv-1, Fv-2, Fv-3) were identical to the amino acid sequences of the CDR3 regions of the screened clones. The expression of the Fv antibodies was confirmed using SDS-PAGE, and the molecular weight of the Fv antibodies was estimated to be 69.2 kDa as shown in FIG. 9. The affinity constant (KD) of the synthetic peptides and the expressed Fv antibodies against RNase A was estimated using an SPR biosensor.

[6] = biological target: T1, Ribonuclease A (Type II-A) from bovine …; test: SPR, RNase A immobilized on the Au chip, fit of SPR signal against peptide concentration. The label is unnamed: it is printed in the light grey of the Peptide-1 marker at the top end of that curve, and agrees with the 1.3 ± 0.1 µM of the text.
Procedure: RNase A was immobilized on the gold surface of the SPR chip used in the SPR biosensor to conduct the binding analysis. For the manufacture of the SPR chip, a 2 nm thick titanium adhesive layer and a 48 nm thick gold surface were consecutively sputter-coated onto BK-7 glass (1×1 cm²). […] To analyze the binding of the expressed Fv antibody to RNase A, Fv antibodies in the concentration range of 0.37-100 nM were reacted using PBS buffer as the […] through association (10 minutes), equilibrium (5 minutes), and dissociation (10 minutes) steps. The washing buffer and total SPR measurements were performed at a flow rate of 15 μL/min. […]
Using the screened CDR3 amino acid sequences, the CDR3 regions of the screened Fv antibodies were synthesized as peptides, and the amino acid sequences were determined from the nucleotide sequences of the CDR3 regions as summarized in Table 7. […] The SPR signal was plotted according to the concentration of the synthetic peptides, and the affinity constants (KD) of these synthetic peptides were calculated through a fitting process.

[7] = biological target: T1, Ribonuclease A (Type II-A) from bovine …; test: SPR biosensor, RNase A immobilized on the Au chip, expressed Fv antibody in solution
Procedure: as §1
Using the screened CDR3 amino acid sequences, the CDR3 regions of the screened Fv antibodies were synthesized as peptides, and the amino acid sequences were determined from the nucleotide sequences of the CDR3 regions as summarized in Table 2. These synthetic peptides (Peptide-1, Peptide-2, Peptide-3) and Fv antibodies (Fv-1, Fv-2, Fv-3) were identical to the amino acid sequences of the CDR3 regions of the screened clones. The expression of the Fv antibodies was confirmed using SDS-PAGE, and the molecular weight of the Fv antibodies was estimated to be 69.2 kDa as shown in FIG. 9. The affinity constants (KD) of these synthetic peptides and the expressed Fv antibodies against RNase A were estimated using an SPR biosensor.

[8] = biological target: T1, Ribonuclease A (Type II-A) from bovine …; test: cell-based or functional assay; remark: listed apart in the source

Row | Binder | IC50, cCMP assay (hydrolysis of 2',3'-cyclic CMP, absorbance at 286 nM) [1] [nM] | IC50 by linear regression, RNA probe assay [1] [nM] | IC50 for the inhibition of RNase A activity, HeLa total RNA cleavage, agarose gel image [1] [nM] | peptide concentration at which the RNase inhibition activity is over 50%, HeLa total RNA cleavage, agarose gel [1] [µM] | relative inhibition level after 60 minutes, RNA probe assay (fluorophore and quencher), peptide at 1 µM [1] [%] | decrease of RNase A activity after approximately 27 minutes, cCMP assay, serum actual sample, 1 µM inhibitor [2] [%] | decrease of RNase A activity after approximately 27 minutes, cCMP assay, pig swab actual sample, 1 µM inhibitor [3] [%] | decrease of RNase A activity after approximately 27 minutes, cCMP assay, saliva swab actual sample, 1 µM inhibitor [4] [%] | Kd [5] [nM] | Kd [6] [nM] | Fv-antibody concentration at which the RNase inhibitory activity is over 50%, HeLa total RNA cleavage, agarose gel [1] [nM] | IC50, RNase activity analysis with the RNA probe [1] [nM] | IC50 for RNase A activity inhibition, HeLa total RNA cleavage, agarose gel image, dose-response curve fitting [1] [nM] | Kd [7] [nM] | IC50 (RNase A activity after treatment with Fv-3 beads, 1/10 diluted Pig Swab, RNase A 10 ng, RNA gel) [8] [nM] | IC50 (RNase A activity after treatment with Fv-3 beads, 1/10 diluted Saliva Swab, RNase A 10 ng, RNA gel) [8] [nM] | IC50 (RNase A activity after treatment with Fv-3 beads, 1/10 diluted Serum, RNase A 10 ng, RNA gel) [8] [nM]
1 | CGPDSDVMTDF (Bought from Peptron, 90% purity; Peptide-1 is tied to the CDR3 of clone 5 / Fv-1 by the order of the names only; also called peptides-1) [Peptide-1, synthetic peptide with the CDR3 sequence of the screened clone] | 607 | 8100 | 995 | > 1 | 54.4 | ~53 | ~41 | ~30 | 1300 | 1350 |  |  |  |  |  |  | 
2 | Fv-1, expressed soluble Fv antibody of clone 5 (His-tag-TdTomato-VH) (other, Fusion protein made in E. coli from a recombinant plasmid (pJS001 to pJS003, not tied one by one); molecular weight estimated 69.2 kDa; No light chain; also called expressed Fv antibody; TdTomato-labeled Fv antibody; not shown: His-tag; TdTomato fluorescent protein) EVQLVESAAEVRRPGASVKITCKASGYSFSTYGIQWMRQAPGQRPEWLGWIHAGTGGTKYSRKFQGRITITRDTSANTVYLDLNSLTSEDTAVYYCARCGPDSDVMTDFWGQGTTVTVSS | 194 |  |  |  |  | ~55 | ~61 | ~42 |  |  | ≥ 350 | 90.2 | 234 | 17.5 |  |  | 
3 | Fv-2, expressed soluble Fv antibody of clone 23 (His-tag-TdTomato-VH) (other, Fusion protein made in E. coli; 69.2 kDa; No light chain; not shown: His-tag; TdTomato fluorescent protein) EVQLVESAAEVRRPGASVKITCKASGYSFSTYGIQWMRQAPGQRPEWLGWIHAGTGGTKYSRKFQGRITITRDTSANTVYLDLNSLTSEDTAVYYCARYGPVGRVKRDDWGQGTTVTVSS | 236 |  |  |  |  | ~55 | ~49 | ~63 |  |  | ≥ 350 | 65.3 | 366 | 28.8 |  |  | 
4 | Fv-3, expressed soluble Fv antibody of clone 39 (His-tag-TdTomato-VH) (other, Fusion protein made in E. coli; 69.2 kDa; No light chain; not shown: His-tag; TdTomato fluorescent protein) EVQLVESAAEVRRPGASVKITCKASGYSFSTYGIQWMRQAPGQRPEWLGWIHAGTGGTKYSRKFQGRITITRDTSANTVYLDLNSLTSEDTAVYYCARDGTAKKSRKDDWGQGTTVTVSS | 196 |  |  |  |  | ~52 | ~55 | ~60 |  |  | ≥ 350 | 98.8 | 436 | 33.9 | 632 | 838 | 1010
5 | YGPVGRVKRDD (also called peptides-2) [Peptide-2, synthetic peptide with the CDR3 sequence of the screened clone] | 373 | 3600 | 658 | > 1 | 53.2 | ~55 | ~41 | ~44 | 1300 |  |  |  |  |  |  |  | 
6 | DGTAKKSRKDD (also called peptides-3) [Peptide-3, synthetic peptide with the CDR3 sequence of the screened clone] | 356 | 400 | 464 | > 1 | 50.3 | ~60 | ~41 | ~35 | 3700 |  |  |  |  |  |  |  | 
